# Reference: US20120316071A1 (published 2012)
# Numbering of substitutions follows the chain as printed. In names and notes the source's numbering stands.
# B1: Fab VH1-46_IGHD6-6*01_IGHJ1*01 & L6_IGKJ1*01 (Fab, V domains shown)
# VH: QVQLVQSGAEVKKPGASVKVSCKASGYTFTSYYMHWVRQAPGQGLEWMGIINPSGGSTSYAQKFQGRVTMTRDTSTSTVYMELSSLRSEDTAVYYCAREEYSSSSAEYFQHWGQGTLVTVSS
# VL: not shown
# notes: Tested as a Fab expressed in E. coli; The heavy chain came from Plasmid A (CH1 with His6 and Flag tags) and the kappa light chain from Plasmid C (kappa CL); also called Wt; wildtype
# B2: Fab VH1-46_IGHD6-6*01_IGHJ1*01 S102A/S103P/S104F (APF) & L6_IGKJ1*01 (Fab, V domains shown)
# VH: B1 VH with S102A, S103P, S104F
# VL: not shown
# notes: Tested as a Fab expressed in E. coli; the constant parts (CH1 with His6/Flag tags, kappa CL) come from Plasmids A and C; also called APF triple mutant; H:APF & L:wt
# B3: Fab VH1-46_IGHD3-10*01_IGHJ4*01 & O1_IGKJ1*01 (Fab, V domains shown)
# VH: QVQLVQSGAEVKKPGASVKVSCKASGYTFTSYYMHWVRQAPGQGLEWMGIINPSGGSTSYAQKFQGRVTMTRDTSTSTVYMELSSLRSEDTAVYYCAREYYYGSGSYYNDYFDYWGQGTLVTVSS
# VL: DIVMTQTPLSLPVTPGEPASISCRSSQSLLDSDDGNTYLDWYLQKPGQSPQLLIYTLSYRASGVPDRFSGSGSGTDFTLKISRVEAEDVGVYYCMQRIEFPSWTFGQGTKVEIKR
# notes: Germline library Fab expressed in E. coli; VH was cloned into Plasmid A (CH1 constant region, His6 and Flag tags); The kappa VL was cloned into Plasmid C (kappa CL)
# Key:
# [1] = molecular target: T1, rHuman HGF R/c-MET/Fc Chimera, CF (R&D Systems Cat#358-MT/CF) (human, UniProt P08581 25-932); assay: ECL multispot (MSD), antigen spotted on plate, Fab at 5.00 (column head: Fab [µM])
# T1 construct: Bought recombinant protein; also called HGF R/Fc; Fc part of the bought chimera not given
# [2] = molecular target: T2, rHuman CD44/Fc Chimera, CF (R&D Systems Cat#3660-CD) (human, UniProt P16070 21-220); assay: as above
# T2 construct: Bought recombinant protein; Fc part of the bought chimera not given
# [3] = molecular target: T3, rHuman Notch-1/Fc Chimera, CF (R&D Systems Cat#3647-TK) (human, UniProt P46531 19-526); assay: as above
# T3 construct: Bought recombinant chimera; Fc part of the bought chimera not given
# [4] = molecular target: T4, Recombinant Human DLL4 (R&D Systems Cat#1506-D4/CF) (human, UniProt Q9NR61 27-524); assay: as above
# T4 construct: Bought recombinant protein; also called delta-like protein 4; rHuman DLL4
# [5] = molecular target: T5, rHuman EGF R/Fc Chimera, CF (R&D Systems Cat#344-ER) (human, UniProt P00533 25-645); assay: as above
# T5 construct: Bought recombinant protein; Fc part of the bought chimera not given
# [6] = molecular target: T6, rHuman IGF-1 sR (insulin-like growth factor-1 soluble receptor), CF (R&D Systems Cat#391-GR) (human, UniProt P08069 31-932); assay: as above
# T6 construct: Bought recombinant soluble receptor
# [7] = molecular target: T7, rHuman Erythropoietin R/Fc Chimera, CF (R&D Systems Cat#963-ER) (human, UniProt P19235 25-250); assay: as above
# T7 construct: Bought recombinant protein; also called EPO R; EPO R/Fc; Fc part of the bought chimera not given
# T7 sequence (looked up): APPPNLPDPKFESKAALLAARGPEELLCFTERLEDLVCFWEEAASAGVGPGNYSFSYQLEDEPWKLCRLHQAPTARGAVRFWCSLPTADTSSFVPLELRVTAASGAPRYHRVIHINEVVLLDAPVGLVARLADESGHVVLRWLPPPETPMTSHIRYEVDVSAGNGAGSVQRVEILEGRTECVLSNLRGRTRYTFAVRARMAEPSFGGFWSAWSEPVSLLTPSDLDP
# [8] = molecular target: T8, rHuman P-Cadherin/Fc Chimera, CF (R&D Systems Cat#861-PC) (human, UniProt P22223 108-654); assay: as above
# T8 construct: Bought recombinant protein; Fc part of the bought chimera not given
# [9] = molecular target: T1, rHuman HGF R/c-MET/Fc Chimera, CF (R&D …); assay: ECL multispot (MSD), antigen spotted on plate, Fab at 50.00 (column head: Fab [µM])
# [10] = molecular target: T2, rHuman CD44/Fc Chimera, CF (R&D Systems …); assay: as above
# [11] = molecular target: T3, rHuman Notch-1/Fc Chimera, CF (R&D …); assay: as above
# [12] = molecular target: T4, Recombinant Human DLL4 (R&D Systems …); assay: as above
# [13] = molecular target: T5, rHuman EGF R/Fc Chimera, CF (R&D …); assay: as above
# [14] = molecular target: T6, rHuman IGF-1 sR (insulin-like growth …); assay: as above
# [15] = molecular target: T7, rHuman Erythropoietin R/Fc Chimera, CF …; assay: as above
# [16] = molecular target: T9, rHuman ErbB2/Fc Chimera, CF (R&D Systems Cat#1129-ER) (human, UniProt P04626 23-652); assay: as above
# T9 construct: Bought recombinant protein; Fc part of the bought chimera not given
# [17] = molecular target: T8, rHuman P-Cadherin/Fc Chimera, CF (R&D …); assay: as above
# [18] = molecular target: T10, Recombinant Human DLL4 (R&D Systems Cat#1506-D4/CF) (human, UniProt Q9NR61 27-524); assay: Multispot ECL (MSD) titration; antigen spotted on plate; Fab 98.1 nM; blank spot 210
# T10 construct: Bought recombinant protein; also called delta-like protein 4; rHuman DLL4
# [19] = molecular target: T11, rHuman HGF R/c-MET/Fc Chimera, CF (R&D Systems Cat#358-MT/CF) (human, UniProt P08581 25-932); assay: as above
# T11 construct: Bought Fc chimera; also called HGF R/Fc; hepatocyte growth factor receptor; Fc part of the bought chimera not given
binder,measurement,setting,value
B1,signal/noise ratio (ECL),[1],0.9
same,signal/noise ratio (ECL),[2],1.3
same,signal/noise ratio (ECL),[3],0.8
same,signal/noise ratio (ECL),[4],32.5
same,signal/noise ratio (ECL),[5],1
same,signal/noise ratio (ECL),[6],1.1
same,signal/noise ratio (ECL),[7],1.1
same,signal/noise ratio (ECL),[8],0.9
same,signal/noise ratio (ECL),[9],0.6
same,signal/noise ratio (ECL),[10],0.3
same,signal/noise ratio (ECL),[11],0.6
same,signal/noise ratio (ECL),[12],33.5
same,signal/noise ratio (ECL),[13],0.9
same,signal/noise ratio (ECL),[14],0.5
same,signal/noise ratio (ECL),[15],0.9
same,signal/noise ratio (ECL),[16],0.6
same,signal/noise ratio (ECL),[17],0.7
B2,signal/noise ratio (ECL),[1],0.8
same,signal/noise ratio (ECL),[2],1.3
same,signal/noise ratio (ECL),[3],0.9
same,signal/noise ratio (ECL),[4],482
same,signal/noise ratio (ECL),[5],1.1
same,signal/noise ratio (ECL),[6],1.1
same,signal/noise ratio (ECL),[7],1.8
same,signal/noise ratio (ECL),[8],1
same,signal/noise ratio (ECL),[9],0.7
same,signal/noise ratio (ECL),[10],0.7
same,signal/noise ratio (ECL),[11],1.1
same,signal/noise ratio (ECL),[12],274
same,signal/noise ratio (ECL),[13],1
same,signal/noise ratio (ECL),[14],0.5
same,signal/noise ratio (ECL),[15],1.6
same,signal/noise ratio (ECL),[16],0.7
same,signal/noise ratio (ECL),[17],0.9
B3,ECL signal,[18],402
same,ECL signal,[19],335
